Data reported in the supplement of paper PMC12042874.
± gives the uncertainty stated by the source.

Experiment: amyloid nucleation score (Sup35N fusion, yeast selection) (log enrichment); library NNK2; higher = more nucleation; inactive = no reads after selection
Method in brief: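 Output and input plasmid inserts were sequenced by Illumina after psi-negative yeast carrying Sup35N fused to peptides of 20 random codons had been induced 24 hours with 100 μM copper sulfate and grown 7 days at 30°C on medium lacking adenine and uracil. The nucleation score is the DiMSum log enrichment of output over input reads, centred on the mode score of non-aggregating sequences. Sequences with under 100 input reads were excluded.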

Row | Substance | amyloid nucleation score
1 | LKVRKLSLARCVGIHTLQT | 4.4 ± 0.06
2 | LLACVSVMFLRSSLINLDRL | -0.637 ± 0.54
3 | LLAIVVILKSTAPGKRY | inactive
4 | LLAKNTSRNRFTHDFVPKVR | inactive
5 | LLASFGFRKVKIYTLPCILA | -1.15 ± 0.76
6 | LLATSWSVLEDLYAGNDLYD | inactive
7 | LLERSRSSIMCTTNRSLELI | 3.18 ± 0.055
8 | LLFIIMRDLLYPTLEDTFLT | 0.317 ± 0.5
9 | LLFMWTWVVVIGRKYANNYF | inactive
10 | LLGGHYP | 0.844 ± 0.52
11 | LLGGWESHSRRNVWYAAGLC | -0.711 ± 1.1
12 | LLISSLLTSDLLGPSSSVMD | 1.51 ± 0.58
13 | LLIVNCMLANYSFWIQSSGS | 5.968 ± 0.029
14 | LLLLF | -1.58 ± 0.75
15 | LLLNILLCIDPYIPWCLSLR | 0.974 ± 0.57
16 | LLLNLMLVHTSMTFVRIKLR | 3.13 ± 0.12
17 | LLLSRGFMGVSKRSMVYRRV | inactive
18 | LLLVRFAPISV | -0.176 ± 1.1
19 | LLNCNCIVV | 8.569 ± 0.031
20 | LLNFYGGMWRGYLTLRYVFG | 0.201 ± 0.6
21 | LLNVPGLVAYEIRGPMRYLF | -0.519 ± 0.44
22 | LLPRCDGGVLVHLNDKSYKL | 1.32 ± 0.39
23 | LLPWHRIAWDAYCMWGMSSS | 0.266 ± 0.21
24 | LLPWSPLKVVTSGYSTF | -1.03 ± 0.78
25 | LLRCSLHNKLTLSFDFAFVV | inactive

Row | Substance | amyloid nucleation score
26 | LLRMKTFDHWYRAREGFAYC | -0.512 ± 0.3
27 | LLSDLFCIFVLRKSRSGGWS | 1.04 ± 0.34
28 | LLSISCV | 0.512 ± 0.34
29 | LLSMYRFFNTLKSC | -0.087 ± 0.33
30 | LLVRFVLVATRRTLSTV | -0.029 ± 1.1
31 | LLVYAQLYRVWVWF | -0.134 ± 0.22
32 | LLWCEWKHG | 4.58 ± 0.076
33 | LLYYPIDGQGDGWLWCVYRV | -0.067 ± 1.1
34 | LMDERGMTKMTYFVYLLKKA | 0.661 ± 0.23
35 | LMFLGWASRNLVDKSTFKWI | -0.843 ± 0.79
36 | LMHFSFSVAGRAGNELLFIG | 2.46 ± 0.22
37 | LMLAYRLIFDDNRTGLSSAS | 0.211 ± 0.5
38 | LMMKKTGCTQFISRYLVRIY | -1.42 ± 1
39 | LMPGMVGDRRGCNDK | 0.49 ± 0.26
40 | LMWENFSRRLLYWLLCGS | inactive
41 | LMYSTFMYHRKHWLLALNQN | 0.034 ± 1.1
42 | LNDNSIGSVILFFSAFLLFY | 2.92 ± 0.12
43 | LNLFWKQSGTVRLDDGWRSV | 0.969 ± 0.74
44 | LNLKRLLLQLFSMPMPVFHV | -0.023 ± 0.49
45 | LNMMIINISFRSKSVDGSRM | 6.945 ± 0.056
46 | LNNYRDGLSY | 4.1 ± 0.064
47 | LNQSKFGKVGTSSVFWLFYN | -1.01 ± 0.31
48 | LNRCLDHRWIPKCVC | 1.36 ± 0.46
49 | LNRISYHTYSILPNVTIMKS | 0.498 ± 0.54
50 | LNSHSITMLLNSVCGCQSWT | 9.201 ± 0.062

Row | Substance | amyloid nucleation score
51 | LNTEMGSLKNL | 3.08 ± 0.06
52 | LNVPGSAMNGRSRNPSF | -0.661 ± 0.48
53 | LNVRLFSVFFSHTSSSHSEN | 3.21 ± 0.061
54 | LNWIIVCLNN | 4.98 ± 0.058
55 | LNYCHILSMYGNIAIIRSQF | 4.48 ± 0.048
56 | LPCFL | 1.93 ± 0.1
57 | LPHKIM | 0.262 ± 0.53
58 | LPHKSLFDPLWRIGKILIQH | 0.034 ± 1.1
59 | LPMNQGLHYKWLFFAISGGL | inactive
60 | LPVVLAGS | -0.191 ± 0.79
61 | LQCEIKPMGDTIMW | 1.47 ± 0.54
62 | LQCGRIV | -0.204 ± 0.79
63 | LQHSTRLNWD | 0.954 ± 0.51
64 | LQLVMKCRVKCAFLPGGMAW | 5.246 ± 0.048
65 | LQMLLHDQTEMFEYT | -0.112 ± 0.28
66 | LQSKAGEPLGRDMRLFLVPV | 0.698 ± 0.58
67 | LQTAIVGSPRLVTFRIYIER | 7.197 ± 0.065
68 | LQVMEIYSLSIYYIYFLYIG | inactive
69 | LQVRLDTRR | 0.043 ± 0.5
70 | LQYAKSHRVSWDGMAANSPG | 0.067 ± 0.45
71 | LQYINRGISRHVVKYSRSLS | -0.733 ± 0.41
72 | LRARTVVGEYCYSLYMQFVM | 0.213 ± 0.43
73 | LRCFRACQTRRAFEVLLLEF | -0.152 ± 1
74 | LRCFSHRPCPKNNIVF | 0.602 ± 0.81
75 | LRFNSNHPHFRGHLYSAVQR | 3.7 ± 0.15

Row | Substance | amyloid nucleation score
76 | LRFRATLSVLLYLWDTSRHV | 1.76 ± 0.26
77 | LRFRKMAKKCNYVVRVVLGF | -0.273 ± 0.29
78 | LRFRVLFVFPRDPW | -0.918 ± 0.78
79 | LRLFCDMYTISSNAVDFVKF | inactive
80 | LRLFYHVR | -0.641 ± 0.33
81 | LRLGHVIPGVKNCREEND | -0.745 ± 0.3
82 | LRLSSGLKSVRTRRRM | 0.904 ± 0.37
83 | LRLVYISTMIQMPFGRRVF | 3.73 ± 0.04
84 | LRPLVL | -0.686 ± 1.1
85 | LRQRY | -0.233 ± 0.64
86 | LRSVKMIRCLNSSLPLNGRG | 0.735 ± 0.12
87 | LRSYWSGIGTTGPV | 4.57 ± 0.1
88 | LRTQSILYLRRMG | -0.164 ± 0.32
89 | LRVCNFCTFHFVWWS | 4.8 ± 0.06
90 | LRVHESAGSNLVVWIKIVLE | 3.42 ± 0.14
91 | LRWVKKRTAAQN | -0.023 ± 0.63
92 | LRYLGWLACDYKTVGRSVTR | 0.978 ± 0.74
93 | LRYRDASEALSYLCMQYDVI | 2.94 ± 0.05
94 | LSDYLPISSWFSLCTEFLAT | -1.02 ± 1.1
95 | LSEGCSLSTSVSMT | -0.392 ± 0.44
96 | LSFIFL | 4.256 ± 0.031
97 | LSFSNPWFMIKSRDMFVCIG | 0.792 ± 0.8
98 | LSGAPRLILRVNLWDTFDVQ | 4 ± 0.046
99 | LSGVGFLDFRPLN | 0.734 ± 0.81
100 | LSHLFSV | -0.381 ± 1.1

Row | Substance | amyloid nucleation score
101 | LSHMLDLRGNNKSFWCYVEG | 0.89 ± 0.44
102 | LSKPDLRTGSDDMS | -0.297 ± 0.79
103 | LSLYIGFYMKGGSCRC | 0.007 ± 0.79
104 | LSNCNRMLAGQGGGSRSDWR | 0.907 ± 0.37
105 | LSNKRKVSSLLM | inactive
106 | LSNLGTNYR | inactive
107 | LSQVSRFLSSTNLT | 0.579 ± 0.47
108 | LSSGLLSLFALKQCF | -0.669 ± 0.54
109 | LSSHPLGLGHTMGHRKF | 0.985 ± 0.48
110 | LSSTFLNFA | inactive
111 | LSWVRAIS | 0.2 ± 0.38
112 | LSWYDLSVQWNLYNIVGRRV | 2.06 ± 0.078
113 | LTFNLLSTLTFVRVLVPPLA | 0.803 ± 0.34
114 | LTGCGDFSLLSIYFSRMHRG | 5.2 ± 0.078
115 | LTGFLNGAGNN | 1.75 ± 0.12
116 | LTGTMVMIVNPLDCVLGVER | 5.01 ± 0.085
117 | LTLAS | 0.49 ± 0.25
118 | LTNCRIVLSLNQARVRIESI | 0.218 ± 0.8
119 | LTNKLELNLGASIADSVGNN | -0.89 ± 0.49
120 | LTPIPFYNPDNISYYNAFPS | inactive
121 | LTVLFLYLSLRCHSYNPAHA | -0.841 ± 1.1
122 | LTVRDLVPPPAMANRFLTVI | -0.016 ± 0.44
123 | LTYLFVQSSVAWLSLMIH | 0.253 ± 0.6
124 | LVCSCIGHVHGVTH | 7.125 ± 0.067
125 | LVDRPGFSVNVD | -0.191 ± 0.35

Row | Substance | amyloid nucleation score
126 | LVHCLSPRIVATGVPHGMMV | 1.04 ± 0.35
127 | LVKGRAAERCNFLSWVKSVQ | -0.533 ± 0.3
128 | LVKVHSISMLINSYLGEFCL | 0.045 ± 0.79
129 | LVLLVPGKLMCF | 4.12 ± 0.081
130 | LVLSGGRV | 0.184 ± 0.42
131 | LVLYGNVA | 0.28 ± 0.74
132 | LVMVCMVSFENHYMLGTEVL | 2.71 ± 0.14
133 | LVNDHGVSVVSCGTD | 0.053 ± 0.79
134 | LVQRWGWSKPLIAGI | -0.271 ± 0.49
135 | LVRMPRGTSFGRCNVCV | inactive
136 | LVRNPAQMSFRPIVHSVCYL | 0.724 ± 0.16
137 | LVSFGVYMLSSVRKECHSLN | 0.536 ± 0.49
138 | LVSNHASYFIQI | 7.467 ± 0.035
139 | LVTVSVVPSWSAVRPTGMNV | 0.84 ± 0.46
140 | LVYDKENIGRLDRRRVWRRQ | 0.767 ± 0.74
141 | LVYVT | 0.434 ± 0.37
142 | LWFKCGHSIQGLVRVTESGS | -0.15 ± 0.27
143 | LWFLVFMDMVRRWRGNHRGE | -0.656 ± 1.1
144 | LWHESC | -0.119 ± 0.33
145 | LWITVRATPRLDRS | 1.03 ± 0.21
146 | LWLKEVYRWMIGGTRYL | -0.618 ± 0.76
147 | LWLVSKAYRYLPYSDWKSAL | 0.161 ± 0.77
148 | LWMDWS | 0.754 ± 0.36
149 | LWVLTSRDDVFMVVFFMTPK | -0.483 ± 0.5
150 | LYCSSLFKVYRGVQTRAKLR | inactive

Row | Substance | amyloid nucleation score
151 | LYDMTCRSSVKGNV | -1.19 ± 0.75
152 | LYENWPCFT | -0.199 ± 0.53
153 | LYEYHHGFVCQRVCGAIVGR | 1.23 ± 0.43
154 | LYFMCNFLTCSL | 7.893 ± 0.057
155 | LYFSNPWFMIKSRDMFVCIG | 0.51 ± 0.18
156 | LYFSSTYCLLVGKTDQIDCH | inactive
157 | LYGNYDTSYTLIQVISLRNG | 6.202 ± 0.04
158 | LYHDEALVWNLRDVSRIYRL | 3.59 ± 0.1
159 | LYKSSQKKPQTLNDFQIAMW | 0.193 ± 0.65
160 | LYLYSWRCNPISP | inactive
161 | LYPCYYCRAEKVHVRLDFTR | -0.517 ± 0.23
162 | LYREDGNMSDH | 1.82 ± 0.28
163 | LYSCWVSCLEGRLVCGPLTH | -0.65 ± 0.39
164 | LYSDGVIDMRRLCKVL | -0.841 ± 0.62
165 | LYTFGFSFLWKYSRFHV | inactive
166 | LYVLVLMVCYRYGGKF | 4.38 ± 0.063
167 | LYVVIIPSEAIHVTKSSHGI | inactive
168 | LYVYGGSLNPGLVMFVPCWK | -0.774 ± 0.76
169 | LYVYMCIPLDYLSSRVDSKR | 5.67 ± 0.094
170 | LYWSLCDFCN | inactive
171 | MACKGLSLCFVWVLENKRRS | 0.454 ± 0.23
